Series [1] relates to HeLa Kyoto. The experiment in a line: solubility in G1/S (NP-40 vs SDS abundance) (log2 ratio); higher = more soluble. Particulars: cell cycle stage: G1/S.
Series [2] concerns HeLa Kyoto. The experiment in a line: melting temperature (median over replicates), in situ; higher = more thermally stable.
For series [3], the system named is HeLa Kyoto. The experiment in a line: solubility change mitosis vs G1/S (difference of NP-40 vs SDS log2 ratios) (log2 ratio difference); higher = more soluble in mitosis.
Series [4] has as its system HeLa Kyoto. The experiment in a line: thermal stability score vs G1/S (z-score of summed log2 fold changes over temperatures); higher = more thermally stable than in G1/S.
[5] abbreviates: cell cycle stage: early G1 (4.5 h after nocodazole release).
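For melting temperature (median over replicates), in situ in this document: HeLa Kyoto cells synchronized by double thymidine or nocodazole block, proteins quantified by TMT10plex mass spectrometry, three independent biological replicates.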
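For solubility change mitosis vs G1/S (difference of NP-40 vs SDS log2 ratios) in this document: synchronized HeLa Kyoto cells (double thymidine block for G1/S, nocodazole release for mitosis), protein amounts in NP-40 versus SDS lysates quantified by mass spectrometry, three biological replicates.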
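For solubility in G1/S (NP-40 vs SDS abundance) in this document: HeLa Kyoto cells arrested at G1/S by double thymidine block, proteins quantified by TMT10plex mass spectrometry in mild NP-40 versus SDS extracts, three biological replicates.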
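For thermal stability score vs G1/S (z-score of summed log2 fold changes over temperatures) in this document: synchronized HeLa Kyoto cells, proteins quantified by TMT10plex mass spectrometry, three biological replicates, mitosis taken 0.5 h after nocodazole release, G1/S directly after double thymidine block.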

For “MEGMDVDLDPELMQKFSCLGTTDKDVLISEFQRLLGFQLNPAGCAFFLDMTNWNLQAAIGAYYDFESPNISVPSMSFVEDVTIGEGESIPPDTQFVKTWRIQNSGAEAWPPGVCLKYVGGDQFGHVNMVMVRSLEPQEIADVSVQMCSPSRAGMYQGQWRMCTATGLYYGDVIWVILSVEVGGLLGVTQQLSSFETEFNTQPHRKVEGNFNPFASPQKNRQSDENNLKDPGGSEFDSISKNTWAPAPDTWAPAPDQTEQDQNRLSQNSVNLSPSSHANNLSVVTYSKGLHGPYPFGQS [C6ORF106]”, in the series with HeLa Kyoto [1], the “solubility in G1/S (log2)” value was 0.214. Also, the melting temperature with HeLa Kyoto [2] (cell cycle stage: G1/S) was 49.4 °C. Also, the “solubility change mitosis (log2)” value in the series with HeLa Kyoto [3] is -0.211. Moreover, the thermal stability score in the series on HeLa Kyoto [4] (setting [5]) is 0.563; with HeLa Kyoto [4] (cell cycle stage: mitosis), 0.668.

With “MFSLSSTVQPQVTVPLSHLINAFHTPKNTSVSLSGVSVSQNQHRDVVPEHEAPSSECMFSDFLTKLNIVSIGKGKIFEGYRSMFMEPAKRMKKSLDTTDNWHIRPEPFSLSIPPSLNLRDLGLSELKIGQIDQLVENLLPGFCKGKNISSHWHTSHVSAQSFFENKYGNLDIFSTLRSSCLYRHHSRALQSICSDLQYWPVFIQSRGFKTLKSRTRRLQSTSERLAETQNIAPSFVKGFLLRDRGSDVESLDKLMKTKNIPEAHQDAFKTGFAEGFLKAQALTQKTNDSLRRTRLILFVLLLFGIYGLLKNPFLSVRFRTTTGLDSAVDPVQMKNVTFEHVKGVEEAKQELQEVVEFLKNPQKFTILGGKLPKGILLVGPPGTGKTLLARAVAGEADVPFYYASGSEFDEMFVGVGASRIRNLFREAKANAPCVIFIDELDSVGGKRIESPMHPYSRQTINQLLAEMDGFKPNEGVIIIGATNFPEALDNALIRPGRFDMQVTVPRPDVKGRTEILKWYLNKIKFDQSVDPEIIARGTVGFSGAELENLVNQAALKAAVDGKEMVTMKELEFSKDKILMGPERRSVEIDNKNKTITAYHESGHAIIAYYTKDAMPINKATIMPRGPTLGHVSLLPENDRWNETRAQLLAQMDVSMGGRVAEELIFGTDHITTGASSDFDNATKIAKRMVTKFGMSEKLGVMTYSDTGKLSPETQSAIEQEIRILLRDSYERAKHILKTHAKEHKNLAEALLTYETLDAKEIQIVLEGKKLEVR [YME1L1]”, in the series with HeLa Kyoto [1], the “solubility in G1/S (log2)” value came out at 0.0482. Also, the values for the melting temperature in the series with HeLa Kyoto [2] (cell cycle stage: G1/S) and in the series with HeLa Kyoto [2] (cell cycle stage: mitosis) were 50.9 °C and 50.8 °C, respectively. Moreover, the “solubility change mitosis (log2)” value in the series with HeLa Kyoto [3] is -0.0396. Also, the thermal stability score in the series on HeLa Kyoto [4] (setting [5]) worked out at 2.02; with HeLa Kyoto [4] (cell cycle stage: mitosis), 1.49.

As to “MTGSNSHITILTLKVLPHFESLGKQEKIPNKMSAFRNHCPHLDSVGEITKEDLIQKSLGTCQDCKVQGPNLWACLENRCSYVGCGESQVDHSTIHSQETKHYLTVNLTTLRVWCYACSKEVFLDRKLGTQPSLPHVRQPHQIQENSVQDFKIPSNTTLKTPLVAVFDDLDIEADEEDELRARGLTGLKNIGNTCYMNAALQALSNCPPLTQFFLDCGGLARTDKKPAICKSYLKLMTELWHKSRPGSVVPTTLFQGIKTVNPTFRGYSQQDAQEFLRCLMDLLHEELKEQVMEVEEDPQTITTEETMEEDKSQSDVDFQSCESCSNSDRAENENGSRCFSEDNNETTMLIQDDENNSEMSKDWQKEKMCNKINKVNSEGEFDKDRDSISETVDLNNQETVKVQIHSRASEYITDVHSNDLSTPQILPSNEGVNPRLSASPPKSGNLWPGLAPPHKKAQSASPKRKKQHKKYRSVISDIFDGTIISSVQCLTCDRVSVTLETFQDLSLPIPGKEDLAKLHSSSHPTSIVKAGSCGEAYAPQGWIAFFMEYVKRFVVSCVPSWFWGPVVTLQDCLAAFFARDELKGDNMYSCEKCKKLRNGVKFCKVQNFPEILCIHLKRFRHELMFSTKISTHVSFPLEGLDLQPFLAKDSPAQIVTYDLLSVICHHGTASSGHYIAYCRNNLNNLWYEFDDQSVTEVSESTVQNAEAYVLFYRKSSEEAQKERRRISNLLNIMEPSLLQFYISRQWLNKFKTFAEPGPISNNDFLCIHGGVPPRKAGYIEDLVLMLPQNIWDNLYSRYGGGPAVNHLYICHTCQIEAEKIEKRRKTELEIFIRLNRAFQKEDSPATFYCISMQWFREWESFVKGKDGDPPGPIDNTKIAVTKCGNVMLRQGADSGQISEETWNFLQSIYGGGPEVILRPPVVHVDPDILQAEEKIEVETRSL [USP33]”, the “solubility in G1/S (log2)” value with HeLa Kyoto [1] was -0.427. Besides, the melting temperature is 51.5 °C in the series with HeLa Kyoto [2] (cell cycle stage: G1/S) and 51 °C in the series with HeLa Kyoto [2] (cell cycle stage: mitosis). In the series with HeLa Kyoto [3], the “solubility change mitosis (log2)” value is -0.00182. Besides, the thermal stability score was 1.09 in the series with HeLa Kyoto [4] (setting [5]) and 2.47 with HeLa Kyoto [4] (cell cycle stage: mitosis).

For the sequence “MIRAAPPPLFLLLLLLLLLVSWASRGEAAPDQDEIQRLPGLAKQPSFRQYSGYLKGSGSKHLHYWFVESQKDPENSPVVLWLNGGPGCSSLDGLLTEHGPFLVQPDGVTLEYNPYSWNLIANVLYLESPAGVGFSYSDDKFYATNDTEVAQSNFEALQDFFRLFPEYKNNKLFLTGESYAGIYIPTLAVLVMQDPSMNLQGLAVGNGLSSYEQNDNSLVYFAYYHGLLGNRLWSSLQTHCCSQNKCNFYDNKDLECVTNLQEVARIVGNSGLNIYNLYAPCAGGVPSHFRYEKDTVVVQDLGNIFTRLPLKRMWHQALLRSGDKVRMDPPCTNTTAASTYLNNPYVRKALNIPEQLPQWDMCNFLVNLQYRRLYRSMNSQYLKLLSSQKYQILLYNGDVDMACNFMGDEWFVDSLNQKMEVQRRPWLVKYGDSGEQIAGFVKEFSHIAFLTIKGAGHMVPTDKPLAAFTMFSRFLNKQPY [CTSA]”, the “solubility in G1/S (log2)” value with HeLa Kyoto [1] is 0.138. Further, the melting temperature in the series on HeLa Kyoto [2] (cell cycle stage: G1/S) was 54.5 °C; with HeLa Kyoto [2] (cell cycle stage: mitosis) it was 57 °C. Also, the “solubility change mitosis (log2)” value with HeLa Kyoto [3] is -0.0924. In addition, the results for the thermal stability score in the series with HeLa Kyoto [4] (setting [5]) and with HeLa Kyoto [4] (cell cycle stage: mitosis) were 0.798 and 2.87, respectively.

For the sequence “MLSLDFLDDVRRMNKRQLYYQVLNFGMIVSSALMIWKGLMVITGSESPIVVVLSGSMEPAFHRGDLLFLTNRVEDPIRVGEIVVFRIEGREIPIVHRVLKIHEKQNGHIKFLTKGDNNAVDDRGLYKQGQHWLEKKDVVGRARGFVPYIGIVTILMNDYPKFKYAVLFLLGLFVLVHRE [SEC11A]”, in the series with HeLa Kyoto [1], the “solubility in G1/S (log2)” value is -0.21. In addition, the values for the melting temperature with HeLa Kyoto [2] (cell cycle stage: G1/S) and in the series on HeLa Kyoto [2] (cell cycle stage: mitosis) were 53.2 °C and 52.3 °C, respectively. Also, in the series with HeLa Kyoto [3], the “solubility change mitosis (log2)” value is -0.117. Also, the thermal stability score with HeLa Kyoto [4] (setting [5]) came out at 9.24; in the series with HeLa Kyoto [4] (cell cycle stage: mitosis), 7.47.

In the case of “MTSKKLVNSVAGCADDALAGLVACNPNLQLLQGHRVALRSDLDSLKGRVALLSGGGSGHEPAHAGFIGKGMLTGVIAGAVFTSPAVGSILAAIRAVAQAGTVGTLLIVKNYTGDRLNFGLAREQARAEGIPVEMVVIGDDSAFTVLKKAGRRGLCGTVLIHKVAGALAEAGVGLEEIAKQVNVVAKAMGTLGVSLSSCSVPGSKPTFELSADEVELGLGIHGEAGVRRIKMATADEIVKLMLDHMTNTTNASHVPVQPGSSVVMMVNNLGGLSFLELGIIADATVRSLEGRGVKIARALVGTFMSALEMPGISLTLLLVDEPLLKLIDAETTAAAWPNVAAVSITGRKRSRVAPAEPQEAPDSTAAGGSASKRMALVLERVCSTLLGLEEHLNALDRAAGDGDCGTTHSRAARAIQEWLKEGPPPASPAQLLSKLSVLLLEKMGGSSGALYGLFLTAAAQPLKAKTSLPAWSAAMDAGLEAMQKYGKAAPGDRTMLDSLWAAGQELQAWKSPGADLLQVLTKAVKSAEAAAEATKNMEAGAGRASYISSARLEQPDPGAVAAAAILRAILEVLQS [TKFC]”, the “solubility in G1/S (log2)” value in the series with HeLa Kyoto [1] was found to be 0.321. The melting temperature in the series on HeLa Kyoto [2] (cell cycle stage: G1/S) was determined as 54.8 °C; in the series on HeLa Kyoto [2] (cell cycle stage: mitosis), 55 °C. Besides, the “solubility change mitosis (log2)” value in the series with HeLa Kyoto [3] is -0.0666. In addition, the thermal stability score worked out at 1.34 in the series on HeLa Kyoto [4] (setting [5]) and 0.558 with HeLa Kyoto [4] (cell cycle stage: mitosis).

The values above are taken from the supplement of paper PMC5998384.
